Test results: patent publication US20110034399A1, “Liquid and Freeze Dried Formulations” (IPSEN PHARMA S.A.S., priority 2008, published 2011)

Assay: Formulation stability of lyophilisate form (HPLC content and purity, pH) on storage
Format: physicochemical
Description: Stabilities measurements were performed by means of High Performance Liquid Chromatographic (HPLC) method. The HPLC system a HPLC Waters Alliance 2695 completed by detection system 2487 Dual λ Absorbance Detector, the column used was a C18, 250×4.6 mm. All details concerning instrumental conditions are gathered in table 6. Elution conditions are gathered in table 7. Two pharmaceutical forms were studied in parallel for stability assays over six months at +5° C. and +25° C./60% RH (relative humidity) and +40° C./75% RH. Measurements were carried out in parallel with (in either wfi, or 5% dextrose as solvent) and a lyophilisate (drug substance on its own) or as second variant of formulations with an additional bulking agents such as mannitol, glycine and trehalose) in WFI. […] C (% initial) represents the content expressed in percentage at the moment T with regard to the content at the moment Tzero. […] In table 7 are gathered the elution program, the ratio of each eluant (mobile phase) used for measurement of formulation stabilities. […] Thereafter 20 ml of acetic acid 0.1 N were added under shaking by means of a vortex and if required additionally dissolved in ultrasonic bath in order to obtain a total dissolution. Weight of brut BI[…] 760 was calculated by means of the following relation: […]

CCCN1CC(CSCC(=O)N[C@H](CCCCNC(=O)CSC[C@@H]2C[C@@H]3c4cccc5[nH]cc(c45)C[C@H]3N(CCC)C2)C(=O)N[C@H]2CSSC[C@@H](C(=O)N[C@H](C(N)=O)[C@@H](C)O)NC(=O)[C@H](CC)NC(=O)[C@H](CCCCN)NC(=O)[C@@H](Cc3c[nH]c4ccccc34)NC(=O)[C@H](Cc3ccc(O)cc3)NC2=O)C[C@@H]2c3cccc4[nH]cc(c34)C[C@H]21 (stereo partly drawn) [BIM23A760, Dop2-DLys(Dop2)-c(Cys-Tyr-DTrp-Lys-Abu-Cys)-Thr-NH2]
C (% initial) (+5° C., T3 Months): 103.6% initial
P (% a/a) (+5° C., T3 Months): 96.10% a/a
pH (+5° C., T3 Months): 6.64
C (% initial) (+5° C., T6 Months): 73.0% initial
P (% a/a) (+5° C., T6 Months): 96.80% a/a
pH (+5° C., T6 Months): 5.81
C (% initial) (+25° C./60% RH, T0): 100% initial
P (% a/a) (+25° C./60% RH, T0): 95.90% a/a
pH (+25° C./60% RH, T0): 6.8
C (% initial) (+25° C./60% RH, T3 Months): 98.8% initial
P (% a/a) (+25° C./60% RH, T3 Months): 93.70% a/a
pH (+25° C./60% RH, T6 Months): 6.63
C (% initial) (+40° C./75% RH, T1 Month): 52.0% initial
P (% a/a) (+40° C./75% RH, T1 Month): 95.9% a/a
C (% initial) (+40° C./75% RH, T3 Months): 29.0% initial
P (% a/a) (+40° C./75% RH, T3 Months): 95.5% a/a
pH (+40° C./75% RH, T3 Months): 5.60
pH (+40° C./75% RH, T6 Months): 5.62
